Source: article doi:10.1101/2024.09.22.614354 (bioRxiv, 2024)
Where a chain is given by its changes, count along the chain named.

What was measured:
Assay in all cases: fluorescence polarisation
[1] = target: T1, wild type Rb pocket domain (Rb^P) (human, UniProt P06400 380-788)
T1 sequence: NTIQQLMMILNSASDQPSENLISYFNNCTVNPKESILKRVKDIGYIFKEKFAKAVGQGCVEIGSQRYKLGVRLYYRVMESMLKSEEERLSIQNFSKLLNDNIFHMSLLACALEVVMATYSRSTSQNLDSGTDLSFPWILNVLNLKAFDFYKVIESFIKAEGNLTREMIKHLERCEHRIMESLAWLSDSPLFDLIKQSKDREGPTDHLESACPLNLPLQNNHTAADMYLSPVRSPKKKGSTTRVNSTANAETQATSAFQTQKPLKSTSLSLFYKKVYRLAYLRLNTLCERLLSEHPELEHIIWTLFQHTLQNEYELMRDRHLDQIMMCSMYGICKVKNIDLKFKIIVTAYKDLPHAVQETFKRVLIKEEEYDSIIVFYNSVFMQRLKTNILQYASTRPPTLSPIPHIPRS

Rb^P R741S = target: T2, Rb^P R741S (human, UniProt P06400 380-788, R741S)
T2 sequence: T1 sequence with R362S

Rb^P R763T = target: T3, Rb^P R763T (human, UniProt P06400 380-788, R763T)
T3 sequence: T1 sequence with R384T

Rb^P S534R = target: T4, Rb^P S534R (human, UniProt P06400 380-788, S534R)
T4 sequence: T1 sequence with S155R

Rb^P K530I = target: T5, Rb^P K530I (human, UniProt P06400 380-788, K530I)
T5 sequence: T1 sequence with K151I

B1: TMR-E7^LxCxE (LxCxE peptide of the E7 oncoprotein from HPV, TMR-labeled) (peptide)
peptide: DLYCYEQLN
modifications: not fully specified; TMR fluorescent label (TMR-E7^LxCxE)
- Kd [1]: 12 nM
- binding result (Rb^P R741S): binds
- binding result (Rb^P R763T): binds
- binding result (Rb^P S534R): binds
- binding result (Rb^P K530I): binds
